Values belong to the substance of their own block, whether it stands above or below them.
What was measured:
[1] = molecular target: human FcγRI (CD64) on cells (human) (UniProt P12314); test: cell-based or functional assay
[2] = molecular target: soluble fusion protein of the extracellular domain of human FcγRI and human IgM heavy chain (sFcγRI-µ) (human) (UniProt P12314); test: ELISA on captured sFcγRI-µ, against a nonspecific human IgG1 mAb
[3] = molecular target: human FcγRI (CD64) on cells (human) (UniProt P12314); test: flow cytometry, fluorescein-conjugated antibody on monocytes

FcγRI expression on monocytes in whole blood (modulation assay) (% of the level prior to BsAb treatment) [1]: 50
Substance: M22 Fab' x 32.2 Fab' x M22 Fab' chemically linked trivalent antibody

human CD64 surface expression on macrophages of CD64-transgenic mice (M32.2-FITC) [1]: < 50 % reduction
Substance: chemically linked M22 Fab' multimer M22 F(ab')3+

percent of binding via the Fv portion [2]: > 95% | antibody sites per cell (antibody sites per cell) [3]: 10500
Substance: humanized anti-FcγRI antibody H22 (KOL VH/REI Vκ mAb)

antibody sites per cell (antibody sites per cell) [3]: 10000
Substance: murine anti-FcγRI monoclonal antibody M22

Source: patent EP1212366B1
